In US20020068323A1 (Amgen, published 2002):

Assays:
[1] = biological target: T1, murine IL-7Rα (murine, UniProt P16872 21-459); test: affinity labeling, DSS cross-linking, transfected 293 cells, SDS-PAGE
T1 construct: whole, on cells; Expressed alone on transiently transfected 293 cells; also called murine IL-7Rα alone
T1 sequence (looked up): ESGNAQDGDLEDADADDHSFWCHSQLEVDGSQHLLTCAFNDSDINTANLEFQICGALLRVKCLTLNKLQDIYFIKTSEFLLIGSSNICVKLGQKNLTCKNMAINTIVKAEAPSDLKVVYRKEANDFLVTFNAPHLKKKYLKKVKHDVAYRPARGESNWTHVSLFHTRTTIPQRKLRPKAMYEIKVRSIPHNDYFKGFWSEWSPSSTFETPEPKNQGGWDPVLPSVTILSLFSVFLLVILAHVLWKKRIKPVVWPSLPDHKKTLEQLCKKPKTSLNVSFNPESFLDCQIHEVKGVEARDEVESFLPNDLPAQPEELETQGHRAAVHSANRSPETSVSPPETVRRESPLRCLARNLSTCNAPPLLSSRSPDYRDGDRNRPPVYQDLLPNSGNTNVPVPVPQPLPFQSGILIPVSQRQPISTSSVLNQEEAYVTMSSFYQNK
Procedure: The binding of TSLP to TSLPR polypeptide in the presence of IL-7Rα was examined in affinity labeling assays. Affinity labeling assays were performed by adding 1-5 nM of ¹²⁵I-labeled TSLP to 5×10⁶ 293 cells transfected with expression constructs for murine IL-7Rα, murine TSLPR polypeptide, murine IL-7Rα and murine TSLPR polypeptide, or human IL-7Rα and murine TSLPR polypeptide. Iodinated TSLP was prepared by adding IODO-GEN (Pierce, Rockford, Ill.) and 2 mCi¹²⁵I to 1 μg of TSLP. A specific activity of approximately 200-300 μCi/μg was obtained by this method. Prior to affinity labeling, 293 cells were transiently transfected using the calcium phosphate method (Eppendorf-5 Prime, Boulder, Colo.). Following a 2 hour incubation with ¹²⁵I-TSLP, cells were cross-linked with 0.1 mg/ml disuccinimidyl suberate (Pierce), lysed in lysis buffer, and the lysates resolved by SDS-PAGE.

[2] = biological target: T2, heterodimer of murine IL-7Rα and murine TSLPR polypeptide (murine, UniProt P16872 21-459); test: displacement binding assay on transfected 293 cells, Scatchard transformation (LIGAND program)
T2 construct: whole, on cells; Both chains co-expressed on transiently transfected 293 cells; also called IL-7Rα/TSLPR polypeptide heterodimer; cells expressing TSLPR polypeptide and IL-7Rα
T2 sequence (P16872 whole entry, looked up): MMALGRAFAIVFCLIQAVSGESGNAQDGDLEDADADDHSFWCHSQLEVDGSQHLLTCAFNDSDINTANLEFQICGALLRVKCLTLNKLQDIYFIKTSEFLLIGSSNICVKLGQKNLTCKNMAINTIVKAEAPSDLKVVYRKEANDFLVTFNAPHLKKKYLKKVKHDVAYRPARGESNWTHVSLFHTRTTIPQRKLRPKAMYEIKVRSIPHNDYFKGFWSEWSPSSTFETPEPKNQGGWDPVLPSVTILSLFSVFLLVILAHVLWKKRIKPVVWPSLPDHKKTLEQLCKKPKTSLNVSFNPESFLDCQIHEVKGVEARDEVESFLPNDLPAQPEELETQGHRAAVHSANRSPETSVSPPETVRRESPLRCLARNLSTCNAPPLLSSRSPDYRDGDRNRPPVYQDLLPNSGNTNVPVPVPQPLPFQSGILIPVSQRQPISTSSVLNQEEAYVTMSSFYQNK
T2 sequence (Q8CII9 whole entry, looked up): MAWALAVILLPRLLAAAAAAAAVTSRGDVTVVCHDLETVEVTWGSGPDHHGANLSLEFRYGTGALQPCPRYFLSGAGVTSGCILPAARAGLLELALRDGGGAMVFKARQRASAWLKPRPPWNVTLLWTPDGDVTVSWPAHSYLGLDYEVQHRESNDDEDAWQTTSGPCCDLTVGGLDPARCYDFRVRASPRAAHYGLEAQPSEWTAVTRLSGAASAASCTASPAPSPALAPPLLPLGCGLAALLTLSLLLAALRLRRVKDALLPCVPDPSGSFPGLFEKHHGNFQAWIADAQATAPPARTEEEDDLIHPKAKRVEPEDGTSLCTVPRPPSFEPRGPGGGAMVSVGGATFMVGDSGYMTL
Procedure: (§1) The binding of TSLP to 293 cells transfected with murine IL-7Rα and murine TSLPR polypeptide, or murine IL-7Rα alone, was analyzed in a displacement binding assay. Following two washes, 1×10⁶ transfected 293 cells were incubated in a constant amount of ¹²⁵I-labeled TSLP (approximately 20,000 cpm) and varying amounts of unlabeled TSLP. Following a 3 hour incubation, treated cells were separated from the medium by centrifugation in olive oil and N-butylphthalate. Cell-bound radioactivity was measured using a gamma counter.
(§2) Analysis of binding data by Scatchard transformation was performed using the LIGAND computer program (Munson and Rodbard, 1980, Anal. Biochem. 107:220-39). […] Due to the very low binding activity of TSLP for cells expressing […], it was not possible to determine the Kd for these cells. Displacement binding assays were also performed using NAG8/7 cells, which constitutively express TSLP receptors and proliferate in response to TSLP (Friend et al., supra; Levin et al., supra). In these displacement binding assays, 5×10⁶ NAG8/7 cells were incubated in a constant amount of ¹²⁵I-labeled TSLP (approximately 180,000 cpm) and varying amounts of unlabeled TSLP. The remainder of the assay was performed as described herein.

[3] = biological target: T3, TSLP receptors constitutively expressed on NAG8/7 cells; test: displacement binding assay with ^125I-TSLP and unlabeled TSLP on NAG8/7 cells, Scatchard transformation
T3 construct: also called single class of receptors
Procedure: as §1, §2

B1: Thymic stromal lymphopoietin (TSLP) (ligand, UniProt Q9JIE6 20-140, looked up)
chain: YNFSNCNFTSITKIYCNIIFHDLTGDLKGAKFEQIEDCESKPACLLKIEYYTLNPIPGCPSLPDKTFARRTREALNDHCPGYPETERNDGTQEMAQEVQNICLNQTSQILRLWYSFMQSPE
For B1, the binding result [1] was “no binding (tested: 1-5 nM of ^125I-labeled TSLP)”, the Kd [2] was about 13 nM and the Kd [3] was about 2.2 nM.
